Target: T1, hu-IL-7Rγc subunit (human), P31785
T1 chain: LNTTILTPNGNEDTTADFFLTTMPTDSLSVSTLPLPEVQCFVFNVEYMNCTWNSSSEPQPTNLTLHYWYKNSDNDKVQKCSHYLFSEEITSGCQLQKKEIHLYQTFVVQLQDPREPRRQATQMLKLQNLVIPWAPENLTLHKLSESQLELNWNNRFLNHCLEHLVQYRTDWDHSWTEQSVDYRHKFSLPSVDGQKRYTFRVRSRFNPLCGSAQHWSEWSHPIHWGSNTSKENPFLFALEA

IC50, < 100 µM:
IMCQEWDGVELCWLERDKAN (modifications not checked) [SEQ ID NO 289]
ANQNTVVECQDWHGVELCWQ (modifications not checked) [SEQ ID NO 274]
IECEEWRGVELCWQ (modifications not checked) [SEQ ID NO 247]
SAPERWVECEDWQGVELCWV (modifications not checked) [SEQ ID NO 259]
VSCQEWDGVELCWVDGDLAA (modifications not checked) [SEQ ID NO 288]
GDRPKEVVCEDWKGVELCWI (modifications not checked) [SEQ ID NO 271]
DWRRSVVECQDWYGVELCWQ (modifications not checked) [SEQ ID NO 265]
TLGRTVVECQDWGGVELCWQ (modifications not checked) [SEQ ID NO 267]
RPQIECQEWQGVELCWTREE (modifications not checked) [SEQ ID NO 287]
PEGREVVVCRDWYGVELCWQ (modifications not checked) [SEQ ID NO 248]
IVCEDWRGVELCWI (modifications not checked) [SEQ ID NO 269]
TANQTVVECQVWGGVELCWQ (modifications not checked) [SEQ ID NO 253]
TWNMSELECQDWNGVEICWH (modifications not checked) [SEQ ID NO 277]
DFERSYVVCQDWDGVELCWI (modifications not checked) [SEQ ID NO 257]
SAGRQEVVCQDWNGVELCWI (modifications not checked) [SEQ ID NO 263]
DVVCQNWDGVDLCWH (modifications not checked) [SEQ ID NO 266]
KITVECQDWDGVELCWPTWI (modifications not checked) [SEQ ID NO 286]
GNDDSYIVCEEWKGVELCWI (modifications not checked) [SEQ ID NO 278]
IWGRTVVECQDWEGVELCWQ (modifications not checked) [SEQ ID NO 249]
RTEVECEDWEGVELCWL (modifications not checked) [SEQ ID NO 322]
VECQEWGGVELCWC (modifications not checked) [SEQ ID NO 254]
GQGREVVVCHDWYGVELCWQ (modifications not checked) [SEQ ID NO 264]
IVCEEWRGVELCWL (modifications not checked) [SEQ ID NO 256]
DVVCQNWEGVDLCWH (modifications not checked) [SEQ ID NO 262]
LNRSVWIECEEYEGVELCWL (modifications not checked) [SEQ ID NO 280]
HEAREVVVCQDWYGVELCWQ (modifications not checked) [SEQ ID NO 251]
KSQVECQDWEGVELCWVVSE (modifications not checked) [SEQ ID NO 285]
ERPRSFIECQEWEGVELCWL (modifications not checked) [SEQ ID NO 272]
